Data taken from US20030204066A1 (published 2003).

How the values were obtained:
human lymphotoxin (TNFβ) = molecular target: T1, human lymphotoxin (TNFβ) (human, UniProt P01374 35-205, limits assumed); assay: cell-based or functional assay
T1 sequence (looked up): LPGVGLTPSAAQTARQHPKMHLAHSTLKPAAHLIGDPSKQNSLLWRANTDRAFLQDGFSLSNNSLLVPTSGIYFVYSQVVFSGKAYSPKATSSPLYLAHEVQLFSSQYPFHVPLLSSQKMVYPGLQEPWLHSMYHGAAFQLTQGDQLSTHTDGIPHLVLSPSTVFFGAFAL

[1] = molecular target: human tumor necrosis factor-α (TNFα) (human, UniProt P01375 77-233); assay: cell-based or functional assay
Sequence of human tumor necrosis factor-α (TNFα) (P01375 77-233): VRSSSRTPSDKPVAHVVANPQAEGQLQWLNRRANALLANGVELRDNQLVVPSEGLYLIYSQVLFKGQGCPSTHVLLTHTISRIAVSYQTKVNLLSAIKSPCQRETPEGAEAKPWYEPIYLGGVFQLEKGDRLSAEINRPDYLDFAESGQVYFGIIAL

| Binder | amount needed for the same inhibition of TNFβ cytotoxicity, against p75P-sf2 (human lymphotoxin (TNFβ)) | IC50 = concentration of fusion protein required to inhibit 2 ng/ml (39.2 pM) TNFα by 50% (WEHI 164 cytotoxicity) [1] [pM] |
| --- | --- | --- |
| p75-sf2 (complete p75 extracellular domain / IgG1 heavy chain fusion) (Fc fusion) chain 1: QLPAQVAFTPYAPEPGSTCRLREYYDQTAQMCCSKCSPGQHAKVFCTKTSDTVCDSCEDSTYTQLWNWVPECLSCGSRCSSDQVETQACTREQNRICTCRPGWYCALSKQEGCRLCAPLRKCRPGFGVARPGTETSDVVCKPCAPGTFSNTTSSTDICRPHQICNVVAIPGNASMDAVCTSTSPTRSMAPGAVHLPQPVSTRSQHTQPTPEPSTAPSTSFLLPMGPSPPAEGSTGDGTLVTVSS chain 2: GTKLEIK | 3 fold (against p75P-sf2) |  |
| p55-sf2 (p55 TNF receptor / IgG1 heavy chain single fusion with truncated light chain JCK) (Fc fusion) chain 1: QVCPQGKYIHPQNNSICCTKCHKGTYLYNDCPGPGQDTDCRECESGSFTASENHLRHCLSCSKCRKEMGQVEISSCTVDRDTVCGCRKNQYRHYWSENLFQCFNCSLCLNGTVHLSCQEKQNTVCTCHAGFFLRENECVSCSNCKKSLECTKLCLPQIGTLVTVSS chain 2: GTKLEIK |  | 70 |
| p55-df2 (double fusion: p55 on both the IgG1 heavy chain and the kappa light chain) (Fc fusion) chain 1: QVCPQGKYIHPQNNSICCTKCHKGTYLYNDCPGPGQDTDCRECESGSFTASENHLRHCLSCSKCRKEMGQVEISSCTVDRDTVCGCRKNQYRHYWSENLFQCFNCSLCLNGTVHLSCQEKQNTVCTCHAGFFLRENECVSCSNCKKSLECTKLCLPQIGTLVTVSS chain 2: DSVCPQGKYIHPQNNSICCTKCHKGTYLYNDCPGPGQDTDCRECESGSFTASENHLRHCLSCSKCRKEMGQVEISSCTVDRDTVCGCRKNQYRHYWSENLFQCFNCSLCLNGTVHLSCQEKQNTVCTCHAGFFLRENECVSCSNCKKSLECTKLCLPQIGTKLEIK |  | 55 |
| p75P-sf2 (p75 amino acids 1-182 / IgG1 heavy chain fusion) (Fc fusion) chain 1: QLPAQVAFTPYAPEPGSTCRLREYYDQTAQMCCSKCSPGQHAKVFCTKTSDTVCDSCEDSTYTQLWNWVPECLSCGSRCSSDQVETQACTREQNRICTCRPGWYCALSKQEGCRLCAPLRKCRPGFGVARPGTETSDVVCKPCAPGTFSNTTSSTDICRPHQICNVVAIPGNASMDAVCTSTSGTLVTVSS chain 2: GTKLEIK |  | 70 |
